PMC7691508 (Nature Communications, 2020)

T1: IFN regulatory factor 3 (IRF3) (mouse (endogenous in peritoneal macrophages, RAW264.7, L929, MEFs)), P70671
T1 chain: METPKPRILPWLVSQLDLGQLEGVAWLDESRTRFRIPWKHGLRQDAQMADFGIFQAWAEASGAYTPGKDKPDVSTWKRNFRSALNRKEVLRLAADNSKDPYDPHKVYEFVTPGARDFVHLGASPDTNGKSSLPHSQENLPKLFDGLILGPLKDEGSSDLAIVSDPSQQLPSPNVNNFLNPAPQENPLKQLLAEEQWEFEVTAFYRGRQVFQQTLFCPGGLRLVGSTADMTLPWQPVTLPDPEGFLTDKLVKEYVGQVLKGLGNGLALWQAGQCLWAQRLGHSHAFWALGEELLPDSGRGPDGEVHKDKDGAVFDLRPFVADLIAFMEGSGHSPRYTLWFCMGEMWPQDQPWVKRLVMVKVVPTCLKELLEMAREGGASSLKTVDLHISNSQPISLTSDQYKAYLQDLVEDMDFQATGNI


Columns and labels:
[1] = target: T1, IFN regulatory factor 3 (IRF3) (mouse …); assay: native gel or EMSA; conditions: remark: other sources report otherwise
[2] = target: the molecule itself; assay: native gel or EMSA

Binder	stoichiometry N [1]	stoichiometry N [2]
IFN regulatory factor 3 (IRF3), P70671 1-419 (natural protein) METPKPRILPWLVSQLDLGQLEGVAWLDESRTRFRIPWKHGLRQDAQMADFGIFQAWAEASGAYTPGKDKPDVSTWKRNFRSALNRKEVLRLAADNSKDPYDPHKVYEFVTPGARDFVHLGASPDTNGKSSLPHSQENLPKLFDGLILGPLKDEGSSDLAIVSDPSQQLPSPNVNNFLNPAPQENPLKQLLAEEQWEFEVTAFYRGRQVFQQTLFCPGGLRLVGSTADMTLPWQPVTLPDPEGFLTDKLVKEYVGQVLKGLGNGLALWQAGQCLWAQRLGHSHAFWALGEELLPDSGRGPDGEVHKDKDGAVFDLRPFVADLIAFMEGSGHSPRYTLWFCMGEMWPQDQPWVKRLVMVKVVPTCLKELLEMAREGGASSLKTVDLHISNSQPISLTSDQYKAYLQDLVEDMDFQATGNI	2	
stimulator of interferon genes (STING) (natural protein) MPYSNLHPAIPRPRGHRSKYVALIFLVASLMILWVAKDPPNHTLKYLALHLASHELGLLLKNLCCLAEELCHVQSRYQGSYWKAVRACLGCPIHCMAMILLSSYFYFLQNTADIYLSWMFGLLVLYKSLSMLLGLQSLTPAEVSAVCEEKKLNVAHGLAWSYYIGYLRLILPGLQARIRMFNQLHNNMLSGAGSRRLYILFPLDCGVPDNLSVVDPNIRFRDMLPQQNIDRAGIKNRVYSNSVYEILENGQPAGVCILEYATPLQTLFAMSQDAKAGFSREDRLEQAKLFCRTLEEILEDVPESRNNCRLIVYQEPTDGNSFSLSQEVLRHIRQEEKEEVTMNAPMTSVAPPPSVLSQEPRLLISGMDQPLPLRTDLI		2
